{"source": "patent US11685791B2", "about": "“Antibody binding specifically to N-terminal region of lysyl-tRNA synthetase exposed on cell membrane” (Zymedi Co., Ltd., priority 2017, dated 2023)", "test_system": "mouse breast cancer 4T-1 cells", "assay": "In-vivo cancer metastasis model (lung metastasis)", "method": "Since KRS can accelerate cell migration through 67LR associated with cancer metastasis, tumor (cancer) animal models were constructed using mouse breast cancer 4T-1 cells (Korean Cell Line Bank), which are well metastasizable to the lung. Orthotopic breast cancer animal models were constructed by injecting 4×10^4 4 T1 cells into the fat pad of six 7-week old BALB/cAnCr mice (Doo Yeol Biotech).\nThe cancer was injected into the mammary fat pad, and after 10 days (Day 10), cancer tissues were resected from the fat pad. After one day (Day 11), N3 IgG (10 mg/kg) was administered twice a week for two weeks at intervals of 3 days (a total of four times, Days 11, 14, 18, and 21) via tail vein i.v. injection, and the same dose of control mock IgG (Thermo #31154) was also administered. One week after the completion of the entire antibody dosing schedule, that is, 28 days after cancer injection, the mice were sacrificed to take lung tissue. Upon autopsy of lung tissue, the lung was inflated by injection of a saline solution into the bronchus through a syringe, collected, and then stored in Bouin's solution (Sigma #HT10132) for 24 h. Thereafter, the metastasis nodules in each lobe of the lung were counted through a microscope.\nIt has been known in the foregoing literature “Dae Gyu Kim et al., (2014)” that the YH16899 compound has an effect on cancer metastasis inhibition by suppressing the interaction between 67LR and KRS. Then, the cancer metastasis inhibitory effect was compared between YH16899 and N3 IgG, the antibody of the present invention. The construction of in-vivo tumor models and the observation of lung metastasis condition were carried out by the same method as in Example <3-3>. YH16899 was orally administered at 100 mpk every day. N3 IgG was intravenously injected at difference concentrations (1 mpk, 10 mpk) through mouse tails.", "data": [{"molecule": "N3 IgG: IgG converted from N3 scFv; VH SEQ ID NO: 49, VL SEQ ID NO: 51; binds KRS N-terminal region (antibody, V domains shown) VH: EVQLLESGGGLVQPGGSLRLSCAASGFTFSSYDMSWVRQAPGKGLEWVSAISYDNGNTYYADSVKGRFTISRDNSKNTLYLQMNSLRAEDTAVYYSARMALDFDYWGQGTLVTVSS VL: QSVLTQPPSASGTPGQRVTISCTGSSSNIGSNYVTWYQQLPGTAPKLLIYDNSNRPSGVPDRFSGSKSGTSASLAISGLRSEDEADYYCASWDDSLSAYVFGGGTKLTVL", "values": [{"measurement": "lung metastasis nodules", "setting": "10 mg/kg i.v. twice a week for two weeks, vs mock IgG control", "result": "significantly suppressed"}, {"measurement": "laminin receptor expression in metastasis nodule sites of lung tissue", "setting": "10 mg/kg i.v., control vs N3 IgG treatment group", "result": "significantly large amount of laminin receptors were expressed in the metastasis nodule sites in control compared with the group treated with the antibody"}, {"measurement": "lung nodule count", "setting": "1 mpk and 10 mpk i.v.", "result": "significantly reduced in a dose-dependent manner"}, {"measurement": "cancer metastasis inhibition compared with YH16899 (100 mpk)", "setting": "1 mpk i.v.", "result": "significantly inhibited cancer metastasis compared with YH16899"}]}]}
